# From US20030166014A1 (CURATORS OF THE UNIVERSITY OF MISSOURI, published 2003)
# T1: Lotus tetragonolobus lectin (LTL) (Lotus tetragonolobus, UniProt P19664 1-240)
# T1 construct: Used at 2 µg/ml in the lectin ELISA
# T1 sequence (looked up): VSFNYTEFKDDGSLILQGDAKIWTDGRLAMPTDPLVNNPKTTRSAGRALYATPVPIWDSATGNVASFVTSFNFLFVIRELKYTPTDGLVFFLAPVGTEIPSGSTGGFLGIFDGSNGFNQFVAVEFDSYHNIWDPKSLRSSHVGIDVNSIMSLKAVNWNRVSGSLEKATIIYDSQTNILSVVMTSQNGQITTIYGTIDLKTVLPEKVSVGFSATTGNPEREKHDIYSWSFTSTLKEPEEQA
# B1: endometriosis-associated peritoneal endometriotic haptoglobin (pHp) (other, human)
# chain 1: VDSGNDVTDIADDGCPKPPEIAHGYVEHSVRYQCKNYYKLRTEGDGVYTLNDKKQWINKAVGDKLPECEADDGCPKPPEIAHGYVEHSVRYQCKNYYKLRTEGDGVYTLNNEKQWINKAVGDKLPECEAVCGKPKNPANPVQ
# chain 2: ILGGHLDAKGSFPWQAKMVSHHNLTTGATLINEQWLLTTAKNLFLNHSENATAKDIAPTLTLYVGKKQLVEIEKVVLHPNYSQVDIGLIKLKQKVSVNERVMPICLPSKDYAEVGRVGYVSGWGRNANFKFTDHLKYVMLPVADQDQCIRHYEGSTVPEKKTPKSPVGVQPILNEHTFCAGMSKYQEDTCYGDAGSAFAVHDLEEDTWYATGILSFDKSCAVAEYGVYVKVTSIQDWVQKTIAEN
# modifications: N-glycosylated; 3 kDa less carbohydrate than sHp beta-chain; more alpha(2-3) sialic acid and fucose than sHp
# notes: domain: α-subunit;domain: β-subunit; also called peritoneal endometriotic Hp
# Key:
# [1] = molecular target: T1, Lotus tetragonolobus lectin (LTL); test: lectin ELISA; slope of absorbance at 405 nm against ng Hp
# [2] = molecular target: T2, Maackia amurensis lectin (MAL) (Maackia amurensis); test: as above
# T2 construct: Used at 10 µg/ml in the lectin ELISA
# T2 sequence (P0DKL3 30-278): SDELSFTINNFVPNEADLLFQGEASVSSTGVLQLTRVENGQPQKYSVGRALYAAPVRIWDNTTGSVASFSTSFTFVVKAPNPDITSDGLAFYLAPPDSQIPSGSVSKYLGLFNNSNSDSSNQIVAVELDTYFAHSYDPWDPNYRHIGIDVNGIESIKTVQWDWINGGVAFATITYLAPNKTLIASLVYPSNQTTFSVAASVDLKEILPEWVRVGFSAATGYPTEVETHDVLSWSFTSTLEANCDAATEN
binder,measurement,setting,value
B1,fold binding relative to sHp,[1],11 times (vs sHp)
same,fold binding relative to sHp,[2],10 times (vs sHp)
